The data set can be described thus: label from the status in PepcDB records.
On to “MNRISVVILNWNGCEMLRSFLPSVLRYSEAEGVEVCVADNGSTDQSVEMLRREFPSVRRILLDGNHGFADGYNLALRQVEAEYVVLLNSDVEVTGQWLQPMAAYLDAHPEVAACQPKIRSWRQKEWFEYAGAAGGFIDRYGYPFCRGRVMGVVEADRGQYDTVLPIFWATGAAMFIRLADYREAGGLDGRFFAHMEEIDLCWRLRARGRGIVCIPQSVVYHVGGATLKKENPHKTFLNFRNNLVMLYKNLPDRELAGVMRVRCWLDYIAAATFALKGQPANAKAVVRARREFKLLRDSFRDARAENLRKTSSHFIPERIKSSILVQFYVKGRKFFSQLSDLKG”, for which the protein production entry was “failed”.

Consider “MNRIWLRAIILTASSALLAGCQFGGLNSLPLPGTAGHGEGAYSVTVEMADVATLPQNSPVMVDDVTVGSVAGIVAVQRPDGSFYAAVKLDLDKNVLLPANAVAKVSQTSLLGSLHVELAPPTDRPPTGRLVDGSRITEANTDRFPTTEEVFSALGVVVNKGNVGALEEIIDETHQAVAGRQAQFVNLVPRLAELTAGLNRQVHDIIDALDGLNRVSAILARDKDNLGRALDTLPDAVRVLNQNRDHIVDAFAALKRLTMVTSHVLAETKVDFGEDLKDLYSIVKALNDDRKDFVTSLQLLLTFPFPNFGIKQAVRGDYLNVFTTFDLTLRRIGETFFTTAYFDPNMAHMDEILNPPDFLIGELANLSGQAADPFKIPPGTASGQ”, for which the protein production entry is listed as “failed”.

With “MNRLKKWIRYVPDRIDDGLRYLCGRMSPDVRLVCVVVMLTGFGCLSIYMTVSSIYRIGRHEGEQLQMDHIRRMELYRGINKDSINIKNQVDYGEPKKSGTATGERCNA”, the protein production result is listed as “failed”.

For “MNRVYVGTVSAVTDIGVFVNLNKRLRGLIHRRNLGNNRFSEDEEILVQVSGIGLSGEIDLKPVKMDGYKVVEISKEVGRVEIAELENLEHHHHHH”, the protein production result is recorded as “failed”.

For “MNSEFDVIDRYFTRPRRNALLGPGDDAALIACKPGMDWAISVDTLVAGRHFFPDVDPATLGHKVLAVNLSDMAAMGATPCWATLSLTLTETLAQDDIWLKAFSSGFFALADQYQVELIGGDTTGGPLNISVQIIGEVERGKALRRSGAQPGDDIWVSGHLGDAALALQSLQQHVTLTAQEAAPCLAALHTPMPRVALGKALVNVAHSAIDISDGLLADLGHILDRSGVAATIDFDHIPRSPALKNKLQPENTVTNTICQLAIDCLLAGGDDYELCFTVPESKRDAVIQLAQESGILLSRIGKIIPGKGLTVLGTDSNPLIFKNKGYDHFSAR”, the protein production entry is given as “failed”.

On to “MNSENHPATTFKSRIKSSLPYTLAVAIIGFVSLWVRMRPYDHVFLSNGFVKFTSNDPWYHIRTLNVLLENYPQRMFFNPMTNYPYGSYIHFGPLYDQMMAITSLILGLGSPSQDLINTVGAYFPAVLGALTVIPVYYIGKYLGGRKTGILAAVFIAFAPGQFLSRSLIGFTDHHVAESLFSTFFMMFFMLAIITAKKKNLRFEDLFNKNFIVVKEPLIYSIIAGVMYSAYQLSWPGASLFLFIALVYAVVQYILDNFNGESSDYLGFTGIITFLVSAILILPFIHPELGFSMYYYTWFHVATAIGTMAGFAALSLIQREFKNRNLKAYYYPLAIFLLGFLGLLAIRFASPSVYSLIISAPNTVFGVLTGGAATIGEVSSMFYYGGTFTLSRAFGNFTVSGFFASIIGLIILLVSVIRKAKPEEVLVLVWSILMLFAIYGQNRFAYYYSINVSILSAYIGGLLLEKVKWNELDEKFKSSVKSPADIPGFLKSFRAKQVLAVLAIAVFLIYPVYGAAMVQSTGSNDPDWAWIEACLWLKSSTPDPGMDYNAIYEAPEDGKLFDYPESAYGVMSWWDYGHYIETLGHRMPNANPFQAGIGGRRGSINETNVPGAAPFLTAQSEEEATEVLESIHPDPEKSGARYIMSDERMAVDIFMAMPEWTLDTEGYMQPYWTGDGYQYLPSKRYFDSMESRLHFLDGNGLKQYRLVYETWAYQTQEAGYKQVYNFLYGSSIPEVDSGYVKIFEYVKGAKITGTVSPNETVNINTTILTGQGRTFEYSQSTSSDSEGRYEFIVPYSTEGPIPGETQFDTAPTGAYVVSYGDTTTEVRVSEEAVLNGEEIKV”, for which the protein production result was “failed”.

Turning to “MNSEQADILDLLSGHTDDTTIERLAFECLLTNMTDDRVVSLMNILGWQGDFNCFAIGGVPSASLASTSLAIRKAVRDLGGEHVVIGTYGTFLLALACQMGAVTPEVTCTAVMPAFSEDEPLYLSPVRSGVAGASHALRETMFSLQAAPALSTPSRPLRADELLPERALLGDDYAREELYRNVYQVLRGENPDDPTYLTVSTFLKYGSSLENTAKELNVHPNTVRYRLKRAAETTGWDATDPRDAYVLTTALAIGRMRDR”, the protein production result is “not failed”.

Turning to “MNSFKEGEYVLIRFGEKKFLRKLLPKQSLSVKKSVLKFDEVIGKPEGVKINGFEVYRPTLEEIILLGFERKTQIIYPKDSFYIALKLNLNKEKRVLEFGTGSGALLAVLSEVAGEVWTFEAVEEFYKTAQKNLKKFNLGKNVKFFNVDFKDAEVPEGIFHAAFVDVREPWHYLEKVHKSLMEGAPVGFLLPTANQVIKLLESIENYFGNLEVVEILHRHYKTISERFRPEDQMVAHTAYLVFGRKLKT”, the protein production result was “not failed”.

In the case of “MNSGDNIIKKKSFTFAVRIVNLYKVLSSEIKEFVMSKQLLRSGTSVGANIREALNAQSKPGFIHKLAISQKECDETGYTNNVEFESMNTDAIELLKIVRSIIMTSKKNIIHNSLEHHHHHH”, the protein production entry was “failed”.

For “MNSHCSHTFITDNRSPRARRGHAMSTLHKVKAYFGMAPMEDYDDEYYDDRAPSRGYARPRFDDDYGRYDGRDYDDARSDSRGDLRGEPADYPPPGYRGGYADEPRFRPREFDRAEMTRPRFGSWLRNSTRGALAMDPRRMAMMFEDGHPLSKITTLRPKDYSEARTIGERFRDGSPVIMDLVSMDNADAKRLVDFAAGLAFALRGSFDKVATKVFLLSPADVDVSPEERRRIAETGFYAYQ”, the protein production result is recorded as “failed”.

Regarding “MNSILSSFKKNQKGIILILIASICTTIGQTLWKMSAMHNMLYILIGFFFYGIGAVGMIIALKYGSFSVIHPMMSMGYVFTIIVSYILLKESVGLGKIIGVILIMFGVAFIGLGDE”, the protein production entry is “failed”.

With “MNSKSQQQEQQPIVFVTGTDTDVGKTFVSTLLVHKWKAAYWKPVQTGIESDQGDSETLKNFKIAASTWQPPIFTPTYALQKPLSPLQAMEYEPNVDIRLLDFVVPEEWSAENPLVVEGAGGVCVPITRKLEITTDLIKHLIETSGHPVYVVVVARSGLGTLNHTLLTWNHLCDNGLRSHLFGVILNGEPNEGNVQALKKFGVNIMAQVAQCTTAHDQDMELHELPSVESLMTQQDVE”, the protein production entry was “failed”.

For “MNSMKLYIFACLCSLILWGVSCNEESAGIPTGSLFLGIEEDATLLTKAESAVTNESLRVDIIAAEGDTIKSYSDYIDEVKGKKIVLPVGTYTISVKSNQSEEAGWEKPFYSGSKEITIQSGEITSVQIVCKISNTKVAVEYADNLADYFSHYETTVSNTSGSLLYTRDETRAGFFKAEKLTADLKLVNQDGNEFAMQRVFPDIKERYFYKIKYSLDDGGGDNEEAGADFGGIIVDEKADTIYYGIFIKQEDLFGKSVPKLALDGFTENKIVYKKTENPSVPEHSLTIEAPNGIKQLKVETTSFQFADVPSFDLCNLTDAARTRLQQLDFPMQEVKDKQELTFVLTDFAKALEPASVTQMATHTFTFSVLDNLHQETTVQFIYEIRPNVNVTTEEPVVWAKFVTLRGNSIDRDNIGFMLKKKADADFQRYDATIYNEQTGDFSLLLIENIMPGTEYEYYAVSGTDAQGNVKTFTTSPIVNLKNNTFDEWFKNGKTWFPNVDVSKWWDSGNTGANTAGENNPTSPEESVVVKGKAAKLQSTWIGFIGIGAFASASMFTGNFVDIDGTNGILSFGQPFTAKPTKLTGYYKYTPVNIDYMEQWDSKVDPDLKSGDSDQCIIYIALCTKNYEIRTNPKSRQLFDPNDASVIAYGELVAKEAVSGEEANGYKKFSIDIKYRKTDVTPSYIVVVAAASRYGDYFTGGKGSTLYIDEFNLEYDYNAASFTNE”, the protein production result is given as “failed”.

Regarding “MNSPANITDPLVLFMPSGKRGRFPVGTPVLDAARQLGVYVESVCGGRATCGRCQIEVQEGNFAKHKIVSSNDHISPKGPKEERYERVRGLPERRRLSCSAQILGDLVIDVPQDTVINALEHHHHHH”, the protein production result is given as “failed”.

As for “MNSSIVNAGIDPQVRESLKSFVGEAIDYANTSGKDAAIAKFNDQNGTFVRGNLYVYAFDYNGTTLALPYQPQLIGTDLSGLQDPYGVNYTKLEHHHHHH”, the protein production entry was “not failed”.

Source of the values: a protein production outcome set (Wang et al. 2014).
